# Reference: patent US20190359697A1 (Scripps Research, published 2019)
# Substitutions are numbered along the chain they refer to. In names and notes the source's numbering stands.
# T1: CD19 (UniProt P15391 20-556, limits assumed)
# T1 sequence (looked up): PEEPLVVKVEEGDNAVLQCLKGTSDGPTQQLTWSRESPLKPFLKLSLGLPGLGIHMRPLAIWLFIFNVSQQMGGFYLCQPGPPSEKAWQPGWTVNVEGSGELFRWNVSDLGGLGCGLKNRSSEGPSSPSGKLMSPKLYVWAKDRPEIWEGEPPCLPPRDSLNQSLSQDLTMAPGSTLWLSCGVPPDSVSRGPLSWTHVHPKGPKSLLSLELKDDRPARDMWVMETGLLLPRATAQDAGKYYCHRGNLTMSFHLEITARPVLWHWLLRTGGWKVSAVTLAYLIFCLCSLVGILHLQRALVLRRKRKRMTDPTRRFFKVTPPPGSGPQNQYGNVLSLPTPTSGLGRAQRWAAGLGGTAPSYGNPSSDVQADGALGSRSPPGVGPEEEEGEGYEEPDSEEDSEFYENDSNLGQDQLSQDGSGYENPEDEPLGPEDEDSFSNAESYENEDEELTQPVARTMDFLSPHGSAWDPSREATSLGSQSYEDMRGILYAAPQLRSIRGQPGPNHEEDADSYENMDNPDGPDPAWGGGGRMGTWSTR
# T2: CD19 (UniProt P15391 20-556)
# T2 chain: T1 sequence (looked up)
# B1: hFMCL2b/H4c(Q1E-V20L)-WT (antibody, V domains shown)
# VH: EVQLQESGPGLVKPSETLSLTCTVSGVSLPDYGVSWIRQPPGKGLEWLGVIWGSETTYYNSALKSRLTISKDNSKNQVSLKMSSLTAADTAVYYCAKHYYYGGSYAMDYWGQGTLVTVSS
# VL: DIQMTQSPSSLSASVGDRVTITCRASQDISKYLNWYQQKPGKAVKLLIYHTSRLHSGVPSRFSGSGSGTDYTLTISSLQPEDFATYFCQQGATLPYTFGQGTKLEIK
# B2: hFMCL2b/H4c(Q1E)-WT (antibody, V domains shown)
# VH: B1 VH with L20V
# VL: B1 VL
# B3: hFMCL2/H3 WT (antibody, V domains shown)
# VH: B1 VH with E1Q, L20V, S61P, A62S, K97R
# VL: B1 VL with V44P, F87Y
# B4: hFMCL2/H4a WT (antibody, V domains shown)
# VH: B1 VH with E1Q, L20V, S61P, A62S, N73T
# VL: B1 VL with V44P, F87Y
# B5: hFMCL2a-LCNT/hFMCH4b (Fab, V domains shown)
# VH: B1 VH with E1Q, L20V, S61P, A62S
# VL: B1 VL with F87Y
# B6: hFMCL2b(A92N)-LCNT/hFMCH4c(Q1E) (Fab, V domains shown)
# VH: B1 VH with L20V
# VL: B1 VL with A92N
# B7: hFMCL2b(V44L)/H4c(Q1E)-WT (antibody, V domains shown)
# VH: B1 VH with L20V
# VL: B1 VL with V44L
# B8: hFMCL2-LCNT/hFMCH4c (Fab, V domains shown)
# VH: B1 VH with E1Q, L20V
# VL: B1 VL with V44P, F87Y
# B9: hFMCL2/H2 WT (antibody, V domains shown)
# VH: B1 VH with E1Q, L20V, S61P, A62S, N73T, K97R
# VL: B1 VL with V44P, F87Y
# B10: hFMCL2b/H4b(Q1E)-WT (antibody, V domains shown)
# VH: B1 VH with L20V, S61P, A62S
# VL: B1 VL
# B11: hFMCL2b/H4b-x-(Q1E)-WT (antibody, V domains shown)
# VH: B1 VH with L48I, S61P, A62S, L67V, V78F, M82L, L85V
# VL: B1 VL
# B12: hFMCL2-LCNT/hFMCH4b (Fab, V domains shown)
# VH: B1 VH with E1Q, L20V, S61P, A62S
# VL: B1 VL with V44P, F87Y
# B13: hFMCL2b/H4b(Q1E-V20L)-WT (antibody, V domains shown)
# VH: B1 VH with S61P, A62S
# VL: B1 VL
# B14: hFMCL2b/H4c-x-(Q1E)-WT (antibody, V domains shown)
# VH: B1 VH with L48I, L67V, V78F, M82L, L85V
# VL: B1 VL
# Target: T1, CD19
# Assay: cell-based or functional assay
Binder,"EC50 of cytotoxicity (LDH), sCAR-T cells + switch vs CD19+ RS4;11, Average of the repeat assays","EC50 of cytotoxicity (LDH), sCAR-T cells + switch vs CD19+ RS4;11, assay DTR-5-15 (PBMC)","EC50 of cytotoxicity (LDH), sCAR-T cells + switch vs CD19+ RS4;11, assay DTR-5-16 (CD4:CD8)","EC50 of cytotoxicity (LDH), sCAR-T cells + switch vs CD19+ RS4;11, assay DTR-5-50 (PBMC)","EC50 of cytotoxicity (LDH), sCAR-T cells + switch vs CD19+ RS4;11, assay DTR-5-51 (CD4:CD8)"
B1,0.013 nM,0.00752 nM,0.0153 nM,0.0144 nM,0.0148 nM
B2,0.00951 nM,0.0071 nM,0.00941 nM,0.00825 nM,0.0133 nM
B3,0.0876 nM,0.139 nM,0.0771 nM,0.0614 nM,0.0726 nM
B4,0.0407 nM,0.0432 nM,0.0507 nM,0.0283 nM,0.0407 nM
B5,0.0068 nM,0.0104 nM,0.00603 nM,0.00529 nM,0.00545 nM
B6,0.00992 nM,0.00873 nM,0.00919 nM,0.00655 nM,0.0152 nM
B7,0.00745 nM,0.00204 nM,0.00845 nM,0.00701 nM,0.0123 nM
B8,0.018 nM,0.0166 nM,0.016 nM,0.0092 nM,0.0301 nM
B9,0.0843 nM,0.141 nM,0.079 nM,0.0386 nM,0.0785 nM
B10,0.0113 nM,0.00715 nM,0.0105 nM,0.00697 nM,0.0207 nM
B11,0.0538 nM,0.0296 nM,0.0776 nM,0.0438 nM,0.0639 nM
B12,0.0156 nM,0.0214 nM,0.00743 nM,0.0187 nM,0.0146 nM
B13,0.00996 nM,0.00963 nM,0.0131 nM,0.00748 nM,0.0096 nM
B14,0.0442 nM,0.0283 nM,0.0818 nM,0.0151 nM,0.0515 nM

# Target: T2, CD19
# Assay: flow
row,Binder,EC50
1,B1,1.18 nM
2,B2,0.809 nM
3,B7,1.72 nM
4,B10,0.987 nM
5,B11,1.87 nM
6,B13,0.875 nM
7,B14,16.9 nM

# Target: T2, CD19
# Assay: flow cytometry cell binding; FIG. 6
row,Binder,EC50
1,B5,1.61 nM

# Target: T2, CD19
# Assay: flow cytometry cell binding; FIG. 7
row,Binder,EC50
1,B5,2.43 nM

# Target: T2, CD19
# Assay: flow cytometry cell binding; FIG. 5; WT switch (no PNE)
row,Binder,EC50
1,B3,23.9 nM
2,B4,6.65 nM
3,B9,45.6 nM
